Test [1] deals with T1, Flag tagged recombinant DLL3 (Adipogen) (Homo sapiens (Human), UniProt Q9NYJ7 27-492).
T1 construct: Bought reagent; also called Flag-DLL3
T1 sequence: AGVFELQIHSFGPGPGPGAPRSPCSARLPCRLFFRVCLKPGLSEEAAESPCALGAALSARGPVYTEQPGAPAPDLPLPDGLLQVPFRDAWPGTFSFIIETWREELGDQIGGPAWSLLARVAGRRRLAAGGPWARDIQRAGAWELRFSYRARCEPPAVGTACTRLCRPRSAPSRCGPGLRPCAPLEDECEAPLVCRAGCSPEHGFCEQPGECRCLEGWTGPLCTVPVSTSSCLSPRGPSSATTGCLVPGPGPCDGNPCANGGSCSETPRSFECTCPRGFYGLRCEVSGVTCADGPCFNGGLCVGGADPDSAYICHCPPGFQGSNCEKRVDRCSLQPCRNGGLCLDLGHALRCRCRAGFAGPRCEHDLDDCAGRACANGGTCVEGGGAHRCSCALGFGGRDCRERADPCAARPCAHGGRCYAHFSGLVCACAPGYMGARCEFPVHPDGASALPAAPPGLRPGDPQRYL
Kind of test: flow cytometry, percent of T cells that recognise recombinant DLL3, Donor 116.
Protocol: (§1) To determine the percentage of T cells that were successfully transduced with DLL3 CAR, T cells were first incubated with 1 ug/ml Flag tagged recombinant DLL3 (Adipogen) in PBS+1% BSA for 20 minutes at 4 C.

Test [2] addresses T1, Flag tagged recombinant DLL3 (Adipogen). Kind of test: flow cytometry, percent of T cells that recognise recombinant DLL3, Donor 419. Background: Flow cytometry measures light scatter and fluorescence of single cells or particles in a stream.
Protocol: as §1
Test [3] shares this target. Kind of test: flow cytometry, primary T cells with the CAR, 1 ug/ml Flag tagged recombinant DLL3, PE anti-Flag.
Protocol: as §1

B1: 3F2 (other)
CAR: QVQLQESGPGLVKPSGTLSLTCAVSGGSISSNNWWSWVRQPPGKGLEWIGDIHHSGSTNYKPSLKSRVTISVDKSKNQFSLNLISVTAADTAVYYCAREAGGYFDYWGQGILVTVSSGGGGSGGGGSGGGGSGGGGSDIQMTQSPSTLSASVGDRVTITCRASQSISSWLAWYQQKPGKAPKLLISKASSLESGVPSRFSGSGSGPEFTLTISSLQPADFATYYCQQYNSYSTFGQGTKLEIKTTTPAPRPPTPAPTIASQPLSLRPEACRPAAGGAVHTRGLDFACDIYIWAPLAGTCGVLLLSLVITKRGRKKLLYIFKQPFMRPVQTTQEEDGCSCRFPEEEEGGCELRVKFSRSADAPAYQQGQNQLYNELNLGRREEYDVLDKRRGRDPEMGGKPRRKNPQEGLYNELQKDKMAEAYSEIGMKGERRRGKGHDGLYQGLSTATKDTYDALHMQALPPR
notes: also called anti-DLL3 CAR with 3F2 scFv, on primary T cells
On to B1, for which the Transduction efficiency in test [1] came to 16.3%; in test [2] it was 12.2%. Besides, in test [3], the “Rec-DLL3 gate, percent of live CD3+ cells” value (“Rec-DLL3 gate, percent” below) worked out at 58%.

B2: 2G1 (other)
CAR: QLQLQESGPGLVKPSETLSLTCTVSGGSISSSSYYWGWIRQPPGKGLEWIGSIYYSGNIYHNPSLKSRVSISVDTSKNQFSLRLSSVTAADTAVYYCAREIIVGATHFDYWGQGTLVTVSSGGGGSGGGGSGGGGSGGGGSAIQMTQSPSSLSASVGDRVTITCRASQGIRNDLGWYQQKPGKAPELLIYAASSLQSGVPSRFSGSGSGTDFTLTISSLQPEDFATYYCLQDYNYPLTFGPGTKVDIKTTTPAPRPPTPAPTIASQPLSLRPEACRPAAGGAVHTRGLDFACDIYIWAPLAGTCGVLLLSLVITKRGRKKLLYIFKQPFMRPVQTTQEEDGCSCRFPEEEEGGCELRVKFSRSADAPAYQQGQNQLYNELNLGRREEYDVLDKRRGRDPEMGGKPRRKNPQEGLYNELQKDKMAEAYSEIGMKGERRRGKGHDGLYQGLSTATKDTYDALHMQALPPR
notes: also called anti-DLL3 CAR with 2G1 scFv, on primary T cells
As for B2, the Transduction efficiency in test [1] stood at 66.9%; in test [2] it was 49.1%. In addition, the “Rec-DLL3 gate, percent” value in test [3] came to 69.1%.

B3: 17A2 (other)
CAR: QVQLQESGPGLVKPSGTLSLTCVVFGDSISSSNWWSWVRQPPGKGLEWIGEVFHSGSTNYNPSLKSRVTISVDKSKNQFSLKLSSVTAADTAVYYCARAAVAGALDYWGQGTLVTVSSGGGGSGGGGSGGGGSGGGGSDIVMTQSPDSLAVSLGERATINCKSSQSVLYSSNNKNYLAWYQQKPGQPPNLLVYWASTRESGVPDRFSGAGSGTDFTLTISSLQAEDVAVYYCQQYYGTSWTFGQGTKVEIKTTTPAPRPPTPAPTIASQPLSLRPEACRPAAGGAVHTRGLDFACDIYIWAPLAGTCGVLLLSLVITKRGRKKLLYIFKQPFMRPVQTTQEEDGCSCRFPEEEEGGCELRVKFSRSADAPAYQQGQNQLYNELNLGRREEYDVLDKRRGRDPEMGGKPRRKNPQEGLYNELQKDKMAEAYSEIGMKGERRRGKGHDGLYQGLSTATKDTYDALHMQALPPR
notes: also called anti-DLL3 CAR with 17A2 scFv, on primary T cells
Take B3: the Transduction efficiency in test [1] was found to be 68.6%; in test [2], 43.3%. For the same molecule, the “Rec-DLL3 gate, percent” value in test [3] worked out at 59.1%.

B4: 11H7 (other)
CAR: QVQLQQWGAGLLKPSETLSLTCAVYGGSFSAYYWNWIRQPPGKGLEWIGEINHSGSTNYNPSLKSRVTISVDTSKNQFSLNLTSLTAADTAVYYCARGLDSSGWYPFDYWGQGTLVTVSSGGGGSGGGGSGGGGSGGGGSDIQMTQSPSSVSASVGDRVTITCRASQGISSWLAWYQQKPGKAPKLLIYAASSLQSGVPSRFSGSGSGTDFTLTISSLQPEDFATYYCQQADSFPFTFGPGTKVDIKTTTPAPRPPTPAPTIASQPLSLRPEACRPAAGGAVHTRGLDFACDIYIWAPLAGTCGVLLLSLVITKRGRKKLLYIFKQPFMRPVQTTQEEDGCSCRFPEEEEGGCELRVKFSRSADAPAYQQGQNQLYNELNLGRREEYDVLDKRRGRDPEMGGKPRRKNPQEGLYNELQKDKMAEAYSEIGMKGERRRGKGHDGLYQGLSTATKDTYDALHMQALPPR
notes: also called anti-DLL3 CAR with 11H7 scFv, on primary T cells
Consider B4, for which the Transduction efficiency in test [1] was found to be 52.4%; in test [2] it was 40.2%.

Source of the values: patent US20230287120A1 (ALLOGENE THERAPEUTICS, published 2023).
